The target in this experiment is His-E-cadherin fusion protein (UniProt P12830). Description: MST; RED-NHS-labelled His-E-cadherin at constant concentration (1 µM) with 2-fold serial dilutions of GST-KRT18 in MST-optimized buffer; 15 min at room temperature; Monolith NT.115; 20 and 40% MST power.
Sequence of UniProt P12830 (P12830 155-882): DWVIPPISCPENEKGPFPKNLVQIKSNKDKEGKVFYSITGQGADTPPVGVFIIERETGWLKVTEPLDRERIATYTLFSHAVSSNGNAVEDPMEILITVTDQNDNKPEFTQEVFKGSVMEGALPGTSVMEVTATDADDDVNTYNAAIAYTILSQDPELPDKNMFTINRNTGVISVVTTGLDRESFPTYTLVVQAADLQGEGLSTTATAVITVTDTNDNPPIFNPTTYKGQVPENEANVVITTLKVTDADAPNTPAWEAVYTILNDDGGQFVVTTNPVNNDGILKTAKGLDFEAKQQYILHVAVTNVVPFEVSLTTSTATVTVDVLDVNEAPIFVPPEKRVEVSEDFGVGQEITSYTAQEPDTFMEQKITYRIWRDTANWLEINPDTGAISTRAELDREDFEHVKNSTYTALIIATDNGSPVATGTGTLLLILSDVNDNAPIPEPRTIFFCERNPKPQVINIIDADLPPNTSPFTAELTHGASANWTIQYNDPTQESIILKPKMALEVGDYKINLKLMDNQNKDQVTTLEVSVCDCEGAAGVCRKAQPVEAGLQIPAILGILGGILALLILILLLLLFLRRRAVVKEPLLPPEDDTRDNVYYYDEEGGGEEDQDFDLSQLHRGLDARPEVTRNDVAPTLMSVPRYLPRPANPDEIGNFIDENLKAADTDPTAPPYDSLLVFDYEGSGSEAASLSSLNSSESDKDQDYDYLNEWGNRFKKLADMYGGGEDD

B1: GST-KRT18 fusion protein (natural protein)
chain: MSFTTRSTFSTNYRSLGSVQAPSYGARPVSSAASVYAGAGGSGSRISVSRSTSFRGGMGSGGLATGIAGGLAGMGGIQNEKETMQSLNDRLASYLDRVRSLETENRRLESKIREHLEKKGPQVRDWSHYFKIIEDLRAQIFANTVDNARIVLQIDNARLAADDFRVKYETELAMRQSVENDIHGLRKVIDDTNITRLQLETEIEALKEELLFMKKNHEEEVKGLQAQIASSGLTVEVDAPKSQDLAKIMADIRAQYDELARKNREELDKYWSQQIEESTTVVTTQSAEVGAAETTLTELRRTVQSLEIDLDSMRNLKASLENSLREVEARYALQMEQLNGILLHLESELAQTRAEGQRQAQEYEALLNIKVKLEAEIATYRRLLEDGEDFNLGDALDSSNSMQTIQKTTTRRIVDGKVVSETNDTKVLRH
Regarding B1, the Kd was determined as 5.6 µM.

Values taken from article PMC10464462.
